Experimental data as given in patent US20210107972A1 (NEURIMMUNE, published 2021).
Blank lines part the entries; values can stand above or below the binder they belong to. No end group written: not given here.

Experiments:
[1] = biological target: T1, pathological Aβ amyloid (Alzheimer's disease human brain) (human, UniProt P05067 672-713); experiment: immunohistochemistry, paraffin-embedded Alzheimer's disease brain sections
T1 construct: also called Aβ deposits

[2] = biological target: T2, human islet amyloid polypeptide (human IAPP), IAPP solution containing IAPP fibrils (human, not fully specified; disulfide bridge between cysteine residues 2 and 7 and an amidated C-terminus (as the filing describes human IAPP)); experiment: direct ELISA, human IAPP solution (fibrils) coated at 10 µg/ml, comparison with chimeric
T2 construct: The human IAPP solution used for ELISA coating contained IAPP fibrils (electron microscopy); also called hIAPP; amylin
T2 peptide: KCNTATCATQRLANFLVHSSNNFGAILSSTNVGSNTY

[3] = biological target: bovine serum albumin (BSA) (bovine, UniProt P02769 25-607); experiment: direct ELISA, BSA coated at 10 µg/ml
[4] = biological target: T3, pepscan peptide 7: 19-SSNNFGAILS-28 (human); experiment: pepscan on nitrocellulose membrane, antibody 1 µg/ml
T3 construct: Spotted on a nitrocellulose membrane
T3 peptide: SSNNFGAILS

[5] = biological target: T4, pepscan peptide 6: 16-LVHSSNNFGA-25 (human); experiment: as above
T4 construct: Spotted on a nitrocellulose membrane
T4 peptide: LVHSSNNFGA

[6] = biological target: T2, human islet amyloid polypeptide (human …); experiment: direct ELISA, human IAPP solution (fibrils) coated at 10 µg/ml
[7] = biological target: T5, pepscan peptide 2: 4-TATCATQRLA-13 (human); experiment: pepscan on nitrocellulose membrane
T5 construct: Spotted on a nitrocellulose membrane
T5 peptide: TATCATQRLA

[8] = biological target: T6, pepscan peptide 1: 1-KCNTATCATQ-10 (human, ends and bridges not checked; cysteine pairing not given here); experiment: pepscan on nitrocellulose membrane, antibody 1 µg/ml
T6 construct: Spotted on a nitrocellulose membrane
T6 peptide: KCNTATCATQ

Sequence of bovine serum albumin (BSA) (P02769 25-607 limits assumed): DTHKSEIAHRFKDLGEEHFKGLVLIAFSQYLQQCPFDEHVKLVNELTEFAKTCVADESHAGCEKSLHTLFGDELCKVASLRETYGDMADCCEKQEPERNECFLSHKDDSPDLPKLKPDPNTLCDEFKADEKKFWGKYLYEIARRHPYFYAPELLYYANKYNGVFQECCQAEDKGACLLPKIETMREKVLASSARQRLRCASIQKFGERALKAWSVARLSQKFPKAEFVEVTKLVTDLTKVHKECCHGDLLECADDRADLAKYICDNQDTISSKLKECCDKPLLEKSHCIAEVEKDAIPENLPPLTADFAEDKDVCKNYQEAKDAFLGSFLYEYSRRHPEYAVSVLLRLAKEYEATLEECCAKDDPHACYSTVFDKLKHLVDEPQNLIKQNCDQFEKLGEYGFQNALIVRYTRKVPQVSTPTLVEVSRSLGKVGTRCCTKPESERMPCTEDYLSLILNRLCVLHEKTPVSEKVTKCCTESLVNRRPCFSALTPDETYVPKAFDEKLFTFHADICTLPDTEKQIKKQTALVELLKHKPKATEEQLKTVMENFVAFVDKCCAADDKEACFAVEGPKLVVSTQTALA

B1: NI-203.19H8 (antibody, V domains shown)
VH: EVQLVESGGGVVQPGTSLRLSCAASGFTFSSYGMHWVRQAPGKGLEWVAIIWYDGSKEYYADSLKGRVTISRDNSENTLYLQLHTLRVEDTAVYFCARTIASATVDHGMDVWGQGTLVTVSS
VL: DVVMTQSPSSVSASVGDRVTITCRASHDISTWLAWYQQRPGKAPNLLIFGASRLQSGVSPRFSGSGSGTDFTLTISSLQPEDFATYYCQQTNNFPPTFGQGTRLEIK
notes: Recombinant human antibody, kappa light chain, detected with anti-human IgG gamma secondary
binding result [1]: no binding (tested: 50 nM) | EC50 [2]: 22.9 nM | binding result [3]: no binding | binding result [4]: binds | binding result [5]: binds | EC50 [6]: 22 nM

B2: mouse chimeric NI-203.19H8 (antibody, V domains shown)
VH: B1 VH
VL: B1 VL
notes: Mouse chimeric version of the human antibody (said to comprise the CDR domains of the human antibody)
binding result [3]: no binding | EC50 [6]: 23.9 nM

B4: mouse chimeric NI-203.9A2 (antibody, V domains shown)
VH: EVQLVESGGGLVQPGGSLRLSCAASGFTFSTFAMSWVRQAPGKGLEWVSTISGSGDNTYYADSLKGRFTISRDNSKNTLYLQVNSLRPEDTAVYYCAKSPSSLLATYFDYWGQGTLVTVSS
VL: EIVLTQSPSTLSASVGDRVTITCRASESINSWLAWYQQKPGKGPKLLIYKASSLQSGVPSRFSGSGSGTEFTLTISSLQPDDFATYYCQQHNSYWTFGQGTKVEIK
notes: as for B2
binding result [3]: no binding

B5: NI-203.8E3 (antibody, V domains shown)
VH: QVQLVQSGAEVKKPGSSVKVSCKASGGTFSSHTISWVRQAPGQGLEWMGGIIPIFGTANYAQKFQDRVTVTADKSTNTAYMELSSLRPEDTAVYYCAKGELEPRILYYYGMDVWGRGTTVTVSS
VL: DVVMTQSPLSLPVTLGQPASISCRSSQSLVYSDGNTYLNWFHQRPGQSPRRLIYKVSNRDSGVPDRFSGSGSGTDFTLKISRVEAEDVGVYYCMQGSNWPGTFGQGTKVEIK
notes: as for B1
binding result [3]: no binding

B7: mouse chimeric NI-203.26C11 (antibody, V domains shown)
VH: QVQLQESGPGLVKPSQTLSLTCTVSGGSISSGNYYWTWIRQPAGKGLEWIGHIYSSGTTNYNPSLESRVTISVDTSKNQFSLSLNSVTAADTAVYYCARPLATVPDAFNIWGQGTMVTVSS
VL: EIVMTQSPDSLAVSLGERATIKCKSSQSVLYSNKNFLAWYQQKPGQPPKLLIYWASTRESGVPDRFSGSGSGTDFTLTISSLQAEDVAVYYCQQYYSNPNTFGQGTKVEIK
notes: as for B2
binding result [3]: no binding

Other lines, results leading:

binding result [1]: no binding (tested: 50 nM) | binding result [3]: no binding
B3: NI-203.9A2 (antibody, V domains shown)
VH: B4 VH
VL: B4 VL
notes: as for B1

binding result [1]: no binding (tested: 50 nM) | binding result [7]: no binding (tested: 1 µg/ml) | binding result [3]: no binding | binding result [8]: binds
B6: NI-203.26C11 (antibody, V domains shown)
VH: B7 VH
VL: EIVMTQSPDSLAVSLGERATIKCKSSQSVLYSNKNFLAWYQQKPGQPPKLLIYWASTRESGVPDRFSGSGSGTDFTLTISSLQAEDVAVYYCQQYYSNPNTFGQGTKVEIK
notes: as for B1
